Laboratory results taken from US20230357420A1 (VILLARIS THERAPEUTICS, published 2023).
Where two headings read alike, the source gives them in different places.

Columns and labels:
Human CD122 [1] = target: T1, Human CD122 (human, UniProt P14784 27-551); assay: flow cytometry (FACS) on huIL15Rβ-transfected CHO-K1 cells, anti-human IgG-FITC, GeoMFI
T1 construct: also called hCD122; IL2RB
T1 sequence: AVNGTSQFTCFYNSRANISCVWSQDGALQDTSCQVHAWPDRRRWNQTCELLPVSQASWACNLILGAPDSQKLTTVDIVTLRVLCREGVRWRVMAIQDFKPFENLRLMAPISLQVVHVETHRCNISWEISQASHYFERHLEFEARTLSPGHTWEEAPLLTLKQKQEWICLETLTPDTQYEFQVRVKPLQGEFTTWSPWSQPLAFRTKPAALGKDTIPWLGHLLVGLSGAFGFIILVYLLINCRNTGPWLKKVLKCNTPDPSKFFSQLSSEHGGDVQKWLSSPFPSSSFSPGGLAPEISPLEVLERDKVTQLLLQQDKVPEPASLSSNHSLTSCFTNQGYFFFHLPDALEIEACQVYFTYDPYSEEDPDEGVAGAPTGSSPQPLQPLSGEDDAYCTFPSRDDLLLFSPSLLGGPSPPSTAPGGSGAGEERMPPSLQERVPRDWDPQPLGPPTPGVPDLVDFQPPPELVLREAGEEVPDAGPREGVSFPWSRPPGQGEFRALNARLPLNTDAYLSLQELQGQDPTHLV
Method: (§1) Purified IgGs were tested in FACs for binding to human and rhesus CD122 expressed on CHO-K1 stable cell lines and CHO-K1 wild-type cells. The IgG samples were titrated in three-fold serial dilutions starting at 500 nM to […]. Binding of IgGs was detected with a mouse anti-human IgG conjugated to FITC. Results were analyzed by examining the Mean Fluorescence Intensity (MFI) of 10000 cells per sample in the BL-1 channel detector of a flow cytometer (AttuneTM NxT Acoustic Focusing Cytometer, Invitrogen/ ThermoFisher Scientific).

Human CD122 [2] = target: T1, Human CD122; assay: as above; remark: listed apart in the source
Method: as §1

Rhesus CD122 [3] = target: T2, Rhesus CD122 (rhesus monkey, UniProt Q38J85 27-551 (cynomolgus entry)); assay: flow cytometry (FACS) on rhIL15Rβ-transfected CHO-K1 cells, anti-human IgG-FITC, GeoMFI
T2 construct: also called rhCD122 on cells
T2 sequence: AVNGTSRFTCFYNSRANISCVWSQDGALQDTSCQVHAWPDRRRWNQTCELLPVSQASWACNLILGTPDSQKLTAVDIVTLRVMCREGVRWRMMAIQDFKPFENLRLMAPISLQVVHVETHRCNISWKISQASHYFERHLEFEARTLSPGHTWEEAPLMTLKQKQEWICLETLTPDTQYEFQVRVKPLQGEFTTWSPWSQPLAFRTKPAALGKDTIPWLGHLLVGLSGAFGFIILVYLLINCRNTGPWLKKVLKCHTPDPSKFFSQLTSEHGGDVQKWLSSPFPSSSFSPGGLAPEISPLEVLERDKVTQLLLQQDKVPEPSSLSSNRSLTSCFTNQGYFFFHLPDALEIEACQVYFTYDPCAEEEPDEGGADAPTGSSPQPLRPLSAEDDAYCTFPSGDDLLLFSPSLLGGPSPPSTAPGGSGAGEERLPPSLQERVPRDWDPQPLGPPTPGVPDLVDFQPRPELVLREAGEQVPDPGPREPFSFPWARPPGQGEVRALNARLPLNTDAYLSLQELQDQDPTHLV
Method: as §1

Rhesus CD122 [4] = target: T2, Rhesus CD122; assay: as above; remark: listed apart in the source
Method: as §1

Rhesus CD122 [5] = target: T2, Rhesus CD122; assay: as above; remark: listed apart in the source
Method: as §1

Human CD122 [6] = target: T1, Human CD122; assay: flow cytometry (FACS) on huIL15Rβ-transfected CHO-K1 cells, anti-human IgG-FITC, GeoMFI; remark: listed apart in the source
Method: as §1

Rhesus CD122 [7] = target: T2, Rhesus CD122; assay: flow cytometry (FACS) on rhIL15Rβ-transfected CHO-K1 cells, anti-human IgG-FITC, GeoMFI; remark: listed apart in the source
Method: as §1

CD20 = target: T3, CD20 (human, UniProt P11836 1-297); assay: Retrogenix cell microarray: fixed HEK293 cells reverse-transfected with the target, AF647 anti-human IgG detection
T3 construct: whole, on cells; Control target; also called MS4A1
T3 sequence (looked up): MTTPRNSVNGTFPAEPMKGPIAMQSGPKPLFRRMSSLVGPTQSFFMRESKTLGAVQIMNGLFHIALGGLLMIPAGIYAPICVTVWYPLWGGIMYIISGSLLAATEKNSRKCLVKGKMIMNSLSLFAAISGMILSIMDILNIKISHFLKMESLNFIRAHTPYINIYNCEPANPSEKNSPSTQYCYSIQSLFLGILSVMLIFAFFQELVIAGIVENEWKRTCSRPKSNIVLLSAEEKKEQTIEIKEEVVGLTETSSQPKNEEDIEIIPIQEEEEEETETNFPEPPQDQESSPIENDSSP
Method: (§2) Slides were analyzed as above.
(§3) The plasmid samples for control and potential target receptors were then re-arrayed onto new chips for repeat analyses in duplicate. […] Control experiments using the same cells but no primary antibody (FIG. .

EGFR = target: T4, EGFR (human, UniProt P00533 25-1210); assay: as above
T4 construct: whole, on cells; Control target on the confirmation array
Method: as §2, §3

[8] = target: T5, Human CD122 human Fc tagged recombinant protein (human, UniProt P14784 27-240); assay: Alphascreen epitope competition: unlabelled VillMAb-1 at log10 -1.9 to 2 nM against VillMab-1 binding to human CD122-Fc (self-competition); CPS (crosstalk-corrected)
T5 construct: also called human CD122-Fc; not shown: human Fc tag
T5 sequence: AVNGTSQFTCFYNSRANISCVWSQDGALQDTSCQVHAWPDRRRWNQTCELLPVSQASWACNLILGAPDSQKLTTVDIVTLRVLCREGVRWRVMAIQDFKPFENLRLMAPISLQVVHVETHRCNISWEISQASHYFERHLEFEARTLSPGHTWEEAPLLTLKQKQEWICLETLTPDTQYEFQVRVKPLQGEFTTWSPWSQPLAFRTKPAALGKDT

B1: IgG1-MIKβ1 (humanized) (antibody, V domains shown)
VH: EVQLLESGGGLVQPGGSLRLSCAASGFSVTSYGVHWIRQAPGKGLEWLGVIWSGGSTDYNAAFISRLTISKDNSKNTVYFQMNSLQAEDTAIYYCARAGDYNYDGFAYWGQGTLVTVSS
VL: DIVLTQSPSSLSASVGDRVTITCSGSSSVSFMYWYQQRPGKAPRLLIYDTSNLASGVPSRFSGSGSGTSYTFTISSLQPEDIATYYCQQWSTYPLTFGQGTKVEVK
notes: also called VillMab-1; VillMAB-1
In the case of B1, the “EC50 (read off the curve)” value (Human CD122 [1]) is reported as roughly 0.9 nM, the “EC50 (read off the curve)” value (Human CD122 [2]) is reported as roughly 0.9 nM and the “EC50 (read off the curve)” value (Rhesus CD122 [3]) is reported as roughly 0.6 nM. For the same binder, the “EC50 (read off the curve)” value (Rhesus CD122 [4]) was roughly 0.6 nM, the “EC50 (read off the curve)” value (Rhesus CD122 [5]) was roughly 0.6 nM and the “EC50 (read off the curve)” value (Human CD122 [6]) was roughly 0.9 nM. The “EC50 (read off the curve)” value (Rhesus CD122 [7]) was roughly 0.6 nM, the binding result (CD20) was “no binding (tested: 5 µg/ml)” and the binding result (EGFR) was “no binding (tested: 5 µg/ml)”. The “IC50 (read off the curve)” value [8] was roughly 2 nM.
